Results published in article PMC4880302.

Key:
[1] = target: wild-type HMPV F protein (soluble, secreted, with C-terminal GCNt trimerization domain) (human metapneumovirus, B2 strain); assay: SPR; BiOptix 404pi; F proteins captured on NiHC1000m chip through their C-terminal His tag to 120 RU; Fab injected at 300 to 0.14 nM, 100 ul/min; 10 mM HEPES pH 7.2, 150 mM NaCl, 0.005% Tween 20, 50 uM EDTA; simple Langmuir model
[2] = target: wild-type HMPV F protein (soluble, secreted, with C-terminal GCNt trimerization domain) (human metapneumovirus, B2 strain); assay: SEC; gel filtration of the purified F proteins alone (Superdex-200, 25 mM sodium phosphate pH 7.4, 100 mM NaCl)
[3] = target: wild-type HMPV F protein (soluble, secreted, with C-terminal GCNt trimerization domain) (human metapneumovirus, B2 strain); assay: negative-stain EM; purified F proteins on carbon-coated copper grids, 2% uranyl formate; unheated and heated to 50°C
[4] = target: DS-7 Fab (anti-HMPV F neutralizing antibody); assay: SPR; as a1 (ProteOn, Fab immobilised, F injected, bivalent analyte model), but HMPV F proteins heated to 50°C for 30 minutes (post-fusion form)
[5] = target: DS-7 Fab (anti-HMPV F neutralizing antibody); assay: SPR; Bio-Rad ProteOn XPR36; biotinylated antibodies (Fabs) immobilised on NLC chip at 80-300 RU; unheated HMPV F injected at 500, 166.7, 55.5, 18.5, 6.2, 0 nM, 100 ul/min; 20 mM NaPO4 pH 7.4, 100 mM NaCl, 10 mM imidazole, 0.005% Tween 20; bivalent analyte model

**Q.** With “DS-7 Fab (anti-HMPV F neutralizing antibody)” as the substance, how does the Kd [1] read?
**A.** 300 pM

**Q.** And the koff [1]?
**A.** 0.000197 s⁻¹

**Q.** And the kon [1]?
**A.** 684000 M⁻¹ s⁻¹

**Q.** What about the t1/2 [1] of the same substance?
**A.** 59 min

**Q.** Which stoichiometry N [2] does the source give for “wild-type HMPV F protein (soluble, secreted, with C-terminal GCNt trimerization domain) (natural protein)” here?
**A.** 3

**Q.** What about the stoichiometry N [3] of the same substance?
**A.** 3

**Q.** What about the Kd [4] of the same substance?
**A.** 2800 pM

**Q.** And the koff [4]?
**A.** 0.000258 s⁻¹

**Q.** And the kon [4]?
**A.** 95700 M⁻¹ s⁻¹

**Q.** And the t1/2 [4]?
**A.** 45 min

**Q.** What about the Kd [5] of the same substance?
**A.** 830 pM

**Q.** And the koff [5]?
**A.** 0.00012 s⁻¹

**Q.** What about the kon [5] of the same substance?
**A.** 147000 M⁻¹ s⁻¹

**Q.** What about the t1/2 [5] of the same substance?
**A.** 96 min
